Reference: US20040005639A1, “Glycerylaldehyde-3-phosphate dehyrogenase promoter inducing cell death” (priority 2000, published 2004)

What was measured:
[1] = tested on: CGCs; assay: Probability of survival of CGCs treated with AraC; assay type: cell-based, rat
Method: (§1) CGCs were prepared according to the previous report (J. Neurochem., 66,928-935 (1996)). 16 hours after plating, the following were mixed and added to the non-serum cultures. In addition, it mixed beforehand and added in the culture so that the ratio of A and B might be set to 5:1, it might serve at a final concentration of 2 micro g/mL, C might be set to 1 micro L/micro g DNA and D might be set to 6 micro L/micro g DNA.
(§2) The cells were washed 20 hours after plating and the culture was continued for further 4 hours. […]
The probability of survival of CGCs treated with AraC (500 micro M) was 68% for 14 hours and 44% for 24 hours.

[2] = tested on: rat cerebellum origin granule cells (CGCs); assay: Reporter assay: luciferase activity of CGCs transfected with promoter-pGL3-enhanser vector, after AraC addition; assay type: cell-based; conditions: for luciferase activity: vector without promoter set to 1.0
Method: The plasmid which inserted promoter sequence (p104-pCR-Script Amp SK (+) and p302-pCR-Script Amp SK (+)) were cleaved at BsmBI site which exists just upstream of translation starting site of GAPDH protein and was created blunt-ends. The fragment was cleaved at the MluI site of 5′-end, sequence including promoter sequence was excised.
The pGL3-enhanser vector (Promega) was opened the MluI-SmaI site, and each promoter sequence excised here was inserted.
Reporter assay was performed with each vector as follows. Reporter assay used the primary culture cell of rat cerebellum origin granule cells (CGCs).
as §1
A) p104-pGL3-enhanser vector or p302-pGL3-enhanser vector both vector contains a firefly luciferase gene on the downstream of the promoter.
B) pRL-SV40 vector (it includes Renilla luciferase gene as an internal standard enzyme on the downstream of SV40 promoter currently activated constantly),
as §2

Nc1ccn([C@@H]2O[C@H](CO)[C@@H](O)[C@@H]2O)c(=O)n1 [AraC, cytosine arabinoside]
probability of survival of CGCs ([1]; AraC 10 micro M, 14 or 24-hours culture): more than 90% | probability of survival of CGCs ([1]; AraC 500 micro M, 14 hours): 68% | probability of survival of CGCs ([1]; AraC 500 micro M, 24 hours): 44%

B1: p104: 1.2 kb rat GAPDH promoter fragment amplified from the EcoRV genome library, SEQ ID NO: 1 (nucleic acid, listed as Rattus norvegicus)
DNA: ACTATAGGGCACGCGTGGTCGATGGCTTGGGTTGGTATCTACGACTAAACAAGAGAGAGAATGAGATTAATCTCCGCATAATAGTGTGTATCGGCTGAACATACACAGACACACACAGACACACACATACACACAGACACAGAAACATACGCTTAGCACACACAGAAGCACACATACACAGACAGAAACTCACATACACAGAGACCCACAGATATAGACACACAGAGACACAGATGCACACACAGACCTACTTACACACTCATAGACATAGATACACACACATAGACACACACTGACATATCAACACACCTACAGACACACACACCACACATACGCACACACACATACATGAACACACACATACACACGCACACACATACACACACATGGAAACACATGTTTTATGAAGATCTAGGAATTACCCCAATCACAGTAGAATGGATGCCTGTGTTGGGACCCAGGAGGGACAGGAAATAGAAATGGGCTAGGGGGCTGGAGAGATGGCTCAGAGGTTAAGAGCACTGTCTGCTCTTCCAGAGGTCCGGAGTTCAATTCCCAGAAACCACATGGTGGCTCACAACCATCTATAATCAGGTCTGGTGCCCTCTTCTGGCCTGCAGGCATACATGCAAGCAGAAAGCTGTATGATGTATACATAATAAATAAATAAATTTGAAAAAAAAGAAATGGGCTTAGGGGTGATGGGAAGAGAAGGACTCTGAAGGTCTGTAGACCGCTCATAAACTGGGGCAGACGTTGCTCCTGCTTGAGCACCTGACTTCCCAGTCCATTGCCACCATGGTCTTTGTGCCACCATGGCCAGTCCAAGGCCATCCTTAAACAGGCTGCAAAAAGTTTTAACTAGGACCATTAGATTGTCTCTTAAAACTATGAAAGGTTTTACTTTATTTCTCTCTCTCTCTCTCTCTCTCTCTCTCTCTCATTTTAAAAATATTTTTTCGGCTCTCTGCTCCTCCCTGTTCTAGAGACAGCCGCATCTTCTTGTGCAGTGCCAGCCTCGTCTCATAGACAAGATGGTGAAGGTCGGTGTGAACGGATTTGGCCGTATCGGACGCCTGGTTACCAGGGCTGCCTTCTCTTGTGACAAAGTGGACACTGTTGCC
modifications: CDS (1035)..(1124)
increase of luciferase activity ([2]; 24 hours after AraC addition, CGCs transformed by p104-pGL3-enhanser vector): 1.7 times | promoter activation ([2]; AraC 10 micro M (Table 2), result in words): neither of the two promoters (p104 and p302) showed significant activation | luciferase activity ([2]; Table 1, AraC 500 micro M, culture time after addition 14 hours): 1.7 | luciferase activity ([2]; Table 1, AraC 500 micro M, culture time after addition 24 hours): 2.4 | luciferase activity ([2]; Table 2, AraC 10 micro M, culture time after addition 14 hours): 1.2 | luciferase activity ([2]; Table 2, AraC 10 micro M, culture time after addition 24 hours): 1.3
